# Assay results as given in a protein production outcome set (Wang et al. 2014).
# Test: label from the status in PepcDB records
row,Sequence,protein production
1,TQIQNRTRRAKRALAARGLTEAVTWSFISKPFAEAFGGGQPELALANPIASDLSDMRPSLLPGLIAAAQANADRGSPDLALFEVGQVFKGDRPQDQFMAASGVRRGVASSAGLGRHWSGSAQATALDAKADAFAVLAAAGAPMAGLQIATNKLPAWLHPGRSGAIQIGPQNVLGYFGELHPRVLEQLGADGPLVAFEVILEKIP,not failed
2,MSLASFPHRNLTWNDINFVHTTDTHGWYSGHINQPLYHANWGDFISFTTHMRRIAHSRNQDLLLIDSGDRHDGNGLSDITSPNGLKSTPIFIKQDYDLLTIGNHELYLWENSKQEYETVVNHFQDKYVCSNVDIRLDNGLFVPLGLKYKYFTTPIRGIRVMAFGFLFDFKRFNSGTRVTPMAETIHEPWFQEALKHEVDLIIIVGHTPISHNWGEFYQVHQYLRQFFPDTIIQYFGGHSHIRDFTVFDSLSTGLQSGRYCETVGWTSVNLDKADLNLPVRQRFSRSYIDFNTDSFKYHTNLDKEFDTAKGKLVSKLIRETRKELKLDTLIGYVKTNYYVDYVPIDHPKSIFNLLALKILKTLPKSKHEERITIINTGSIRYDLYKGPYTIDSKFIVSPFENIWVNITVPKSVATKVAAKLNDADYISASRLKPPHQYDLQVQDLSTSPHQAHFEMQEKLPKGYVTHDDFGADGDDTLHRAVVNFPVPNVIQSVEINDEVDSPVNLVFYSFITPNIIWALKELNFSTEQVPTPYSDIYLGTLLNEFVANNEGHHHHHH,not failed
3,NGDQQTMVYIVSAKRKIIADRMLQELDLGVTMLQAVGAYKNNETEVIMCVMRKATLVKVRNLLKEVDPDAFMIVSTANEVFGEGFKNQYETEI,not failed
4,MSLSAPRITRVETAAIRAVGPSVLVRVWAGDEHGLGECYPSAPAAGIHHIVMNMEEQLLGEDPRDVERLYEKMRRWNIFTGGQAGAVITALSGIETALWDLAGKLQGVPVYRLLGGAFRRRVRLYADCNAGTVDAAAHHIEGGLFVEGSNEEYIAVAREAVERGFDAIKLDVDDITGPLHRDFWNGAISPREHEAMVARVAAVREAVGPEVEVAIDMHGRFDIPSSIRFARAMEPFGLLWLEEPTPPENLDALAEVRRSTSTPICAGENVYTRFDFRELFAKRAVDYVMPDVAKCGGLAEAKRIANLAELDYIPFAPHNVSSPVGTVAAAHVCAAVSNFAVLEWHAIDMPHWEDFVRYPGGPVIREGHIELTEEPGLGLELDEEAAFEHRHEKGGVPFFGRTEGHHHHHH,not failed
5,LSDKLMERLKERAEGIFVSGPPGSGKSTFVAALAEFYRSQGKIVKTMESPRDLQVSKEITQYAPLEGDMEKTCDILLLVRPDYTIYDEVRKTRDFEIFADMRMAGVGMVGVVHASKPIDAIQRLIGRVELGVIPQVVDTVIFIKDGKIQKVYEIDFTVKVPYG,failed
6,MECGVFHTPYMRPGRKDKDTFEYSLLLAAACDKFGYRDFMVGEHGMQAWENIPNPELLIVAAAQITERMRFAPMAHIVPLHNPSTLAIQIGYTSQLLEDRYFLGVGAGSWENEAVLRGQPGDLSEAHPRLMEGLEVMDKVWRQEPFDFEGKYYKAARLDGQIDPGSVASHGEFKVKDGEEYHLTADHSPHGGADGLEIAVTGLSKNSPSHRLAGERGWTPISFYGGSALLRSQWDTYSEAVRSIGGTPQGSRFKIARDVFVAKTDEEAKEKAKNGALGLAWQKYLMPVYQKYRILQGFIDDADHKVDIDDVDLDYLADNVWLCGSPDTVIEKIEKTFDLAGFRYGQLAVNTHDAMDDPEPWIESLRLFATEVVPNVPVEGTHETVAVG,failed
7,MKIQDYTKQMVDEKSFIDMAYTLLNDKGETMNLYDIIDEFRALGDYEYEEIENRVVQFYTDLNTDGRFLNVGENLWGLRDWYSVDDIEEKIAPTIQKFDILDADDEEDQNLKLLGEDEMDDDDDIPAQTDDQEELNDPEDEQVEEEINHSDIVIEEDEDELDEDEEVFEDEEDFND,not failed
8,MIRLPRAGTVLAVRGTAARSRRRLSTMARMPDTNTTDLWERRTQGPLLALAVLFAVAYALPVVMPDAPEQLLFACHVANWVVWAAFAIDYAVRLWLSEDRLRFVRSHPLALLAVLLPLLRPLRLLKLVSMLLLAGQRARMASQVRVTTYVAGSCLGLLVFGALAVLEVERGRPGASIQTLGDALWWAFTTMTTVGYGDMAPTTGLGRLLAIGLMLSGIALLGVVTANIAAWFISRFERDDAEERRQTAAIEALTEEVRALRAQVATLRAPQGAPSELNVLPAPTREHD,failed
9,MAPQPVIRSKQAEKTINGNQTQVVCTEFSNYIFIVLTQYGKIGTLVSITPDTRSGDISVPMYTSKVLLGKDEPLTHVYAKNVATFVSQESGNRPILLGLSLKDNSAETMKTVKDMIKSCQVW,failed
10,MSPTVLPATQADFPKIVDVLVEAFANDPTFLRWIPQPDPGSAKLRALFELQIEKQYAVAGNIDVARDSEGEIVGVALWDRPDGNHSAKDQAAMLPRLVSIFGIKAAQVAWTDLSSARFHPKFPHWYLYTVATSSSARGTGVGSALLNHGIARAGDEAIYLEATSTRAAQLYNRLGFVPLGYIPSDDDGTPELAMWKPPAMPTV,not failed
11,MPCTPDTTSHPCFTEKAAQSCGRVHLPVAPKCNVLCGYCNRKYDCVNESRPGVTSGVLTPAQAADYLDRVLEREPAIRVAGIAGPGDPMANAAATLETLRLIRQRHPDMLFCLSSNGLGMPPHLDALAANGVTHATLTINAVDPDISARLYTWVRDGKVVWRGRPAAELMLERQLTALTGLVQRGIVVKVNTILVPGINDGHVEQVAEKVAALGATLMNIIPLHPTHDTPLAQVAEPSPEAVGEARRLAGAHIRQMTHCRRCRADAVGLLHHDRSRELAPLLRECAQKDDGAGARPFVAVATREGMLVNQHLGEATRLQIWGLGPARSGKGGTTTGGEAASGRNDAKGTGSGDVPGSTGGNSWGKAGATPWDSEEDKNDKRTDSTGSTGGDSGAVCGTTHGTTCGKDATRAGTDATDMPVPVLLEERATPRPGCGPERWHALADMLKDCRAVLTAACGESPRAILREHGITVTECAGIVEDVVGAVLAGLDVNAFRARKGGVSKGCCRGGGDGC,failed
12,GSSGSSGMASTFTSDTLPADHKAAIRQMKHALRAQLGDVQQIFNQLSDDIATRVAEINALKAQGDAVWPVLSYADIKAGHVTAEQREQIKRRGCAVIKGHFPREQALGWDQSMLDYLDRNRFDEVYKGPGDNFFGTLSASRPEIYPIYWSQAQMQARQSEEMANAQSFLNRLWTFESDGKQWFNPDVSVIYPDRIRRRPPGTTSKGLGAHTDSGALERWLLPAYQRVFANVFNGNLAQYDPWHAAHRTEVEEYTVDNTTKCSVFRTFQGWTALSDMLPGQGLLHVVPIPEAMAYVLLRPLLDDVPEDELCGVAPGRVLPVSEQWHPLLIEALTSIPKLEAGDSVWWHCDVIHSVAPVENQQGWGNVMYIPAAPMCEKNLAYAHKVKAALEKGASPGDFPREDYETNWEGRFTLADLNIHGKRALGMDV,not failed
13,MHFRDTSERQSDAVNESSLDSVHLQMIKGMLYQQRQDFSSQDSVSRKKVLSLNLKQTSKTEEIKNVLGGSTCYNYSVKDLQEISGSELCFPSGQKIKSAYLPQRQIHIPAVFQSPAHYKQTFTSCLIEHLNILLFGLAQNLQKALSKVDISFYTSLKGEKLKNAENNVPSCHHSQPAKLVMVKKEGPNKGRLFYTCDGPKADRCKFFKWLEDVTPGYSTQEGARPGMVLSDIKSIGLYLRSQKIPLYEECQLLVRKGFDFQRKQYGKLKKFTTVNPEFYNEPKTKLYLKLSRKERSSAYSKNDLWVVSKTLDFELDTFIACSAFFGPSSINEIEILPLKGYFPSNWPTNMVVHALLVCNASTELTTLKNIQDYFNPATLPLTQYLLTTSSPTIVSNKRVSKRKFIPPAFTNVSTKFELLSLGATLKLASELIQVHKLNKDQATALIQIAQMMASHESIEEVKELQTHTFPITIIHGVFGAGKSYLLAVVILFFVQLFEKSEAPTIGNARPWKLLISSSTNVAVDRVLLGLLSLGFENFIRVGSVRKIAKPILPYSLHAGSENESEQLKELHALMKEDLTPTERVYVRKSIEQHKLGTNRTLLKQVRVVGVTCAACPFPCMNDLKFPVVVLDECSQITEPASLLPIARFECEKLILVGDPKQLPPTIQGSDAAHENGLEQTLFDRLCLMGHKPILLRTQYRCHPAISAIANDLFYKGALMNGVTEIERSPLLEWLPTLCFYNVKGLEQIERDNSFHNVAEATFTLKLIQSLIASGIAGSMIGVITLYKSQMYKLCHLLSAVDFHHPDIKTVQVSTVDAFQGAEKEIIILSCVRTRQVGFIDSEKRMNVALTRGKRHLLIVGNLACLRKNQLWGRVIQHCEGREDGLQHANQYEPQLNHLLKDYFEKQVEEKQKKKSEKEKSKDKSHS,failed
14,MPDINESMLNQFRPVIRRFIDPIADRIALPADYITLTGFLVACAASAGYASGSLITGAALLAASGFIDVLDGAVARRRFRPTAFGGFLDSTLDRLSDGIIIIGITAGGFTGLLTGLLALHSGLMVSYVRARAESLGIECAVGIAERAERIIIILAGSLAGYLIHPWFMDAAIIVLAALGYFTMIQRMIYVWQRLK,failed
15,MDECTVTRHYEGKGRNAGRLGAVGCKNRHGEFRIGSGFKDKDRDNPPKIGTLITYRYRGFTRKGTPKFATFVRVRTDLEHHHHHH,not failed
16,MMTVVKGLVTFRPMFALVLLSALVGCASAPKKAPPPSSFDATMSRAEAEVTNGGPEQALKTFEDAGRADPTRKEPWVRIAQLQFDRANYARAIVAAQEVLQRDPNDLVADGVLTVAGFRIANQSLQRLQGRGALVSGTARKEAEMLASTLRATMGDDILQPDEPKKRKPVRNARRAAPPAAKDAAPPKQTPNASADPFQNLGGN,failed
17,MSEDSELIEQVIEQPDSLIISPPSDSSSSSYNHIQPFVYLESTATTQTNHNVLLILNQKITIDLISLWKKCEIIVCADGGANSLYEYFNDNNHHHHHENLQRSDYIPDYIVGDFDSISPDVKTYYESHGSKIIRQSSQYYNDFTKSIHCIQLHYQLNHTKENWFESIDEVDGLAKLWNGLNNSSDVVVDIDITIYVLNAIGGRFDQTVQSINQLYIMNEDYPKVTVFFITTNDIIFLLKKGVNYISYKNRLMFHKDNGSSPTPTCGLLPLSNKTPIILNSYGLKYDMRNWKTEMLGQVSSSNRISGETGFIVECSDDIVMNIEIDV,not failed
18,MSLRQVIPIPSPPAKYLLPEVTVLDYGKKCVVIDLDETLVHSSFKPISNADFIVPVEIDGTIHQVYVLKRPHVDEFLQRMGQLFECVLFTASLAKYADPVADLLDRWGVFRARLFRESCVFHRGNYVKDLSRLGRELSKVIIVDNSPASYIFHPENAVPVQSWFDDMTDTELLDLIPFFEGLSREDDEGHHHHHH,not failed
19,MIYLFLALLSYACTYCLVGLLIQGQLADVAEGLRHRPDAPTPGEYLREVGPRARQARRQYTLIAGSVLAVLACLIASGFG,failed
20,MIAKEFETFLLGQEETFLTPAKNLAVLIDTHNADHATLLLSQMTYTRVPVVTDEKQFVGTIGLRDIMAYQMEHDLSQEIMADTDIVHMTKTDVAVVSPDFTITEVLHKLVDESFLPVVDAEGIFQGIITRKSILKAVNALLHDFSKEYEIRCQ,not failed
21,DNHGVVHCVESAPAAVSAGKRALSQLVEDQKIVFHTETVERAMNQLPAPTLVVLDPPRVGAGAETVRAIAQSGPQAAIHIGCDPATFARDIAEWSRNGFILEKLRVFDAFPGTHHCETIGLLTKKN,failed
22,MQKDKILKKIIVLCFFIFYNFNFFGLAVPSLSGPVVDKAGILSRSEFEKIENFLLDLDQKSKVQIAVLIIPSLEGESIEDYSMQVAEEWKLGDKEKDSGALLVVAVKDKKLRIEVGYGLEENLTDSRSGQIIRNFIAPQFRSGNYGEGIYDGIKAMAAYASEDESLLKEIAVSDEDDEGGFPQALLFFLFVYLMISKFSPGGLFWIFYLLSRSGRAGRSFNGRSSSRGSFFGGSIGRSSGRGFSGGGFSGGGGSFGGGGASGGW,failed
